# Earlier results in article PMC2806950.
# Target: EcoKI R/M enzyme (Escherichia coli) (UniProt P08956)
# Assay: given as Ka
# EcoKI R/M enzyme (Escherichia coli), sequence (P08956 whole entry, chain 1 of 3): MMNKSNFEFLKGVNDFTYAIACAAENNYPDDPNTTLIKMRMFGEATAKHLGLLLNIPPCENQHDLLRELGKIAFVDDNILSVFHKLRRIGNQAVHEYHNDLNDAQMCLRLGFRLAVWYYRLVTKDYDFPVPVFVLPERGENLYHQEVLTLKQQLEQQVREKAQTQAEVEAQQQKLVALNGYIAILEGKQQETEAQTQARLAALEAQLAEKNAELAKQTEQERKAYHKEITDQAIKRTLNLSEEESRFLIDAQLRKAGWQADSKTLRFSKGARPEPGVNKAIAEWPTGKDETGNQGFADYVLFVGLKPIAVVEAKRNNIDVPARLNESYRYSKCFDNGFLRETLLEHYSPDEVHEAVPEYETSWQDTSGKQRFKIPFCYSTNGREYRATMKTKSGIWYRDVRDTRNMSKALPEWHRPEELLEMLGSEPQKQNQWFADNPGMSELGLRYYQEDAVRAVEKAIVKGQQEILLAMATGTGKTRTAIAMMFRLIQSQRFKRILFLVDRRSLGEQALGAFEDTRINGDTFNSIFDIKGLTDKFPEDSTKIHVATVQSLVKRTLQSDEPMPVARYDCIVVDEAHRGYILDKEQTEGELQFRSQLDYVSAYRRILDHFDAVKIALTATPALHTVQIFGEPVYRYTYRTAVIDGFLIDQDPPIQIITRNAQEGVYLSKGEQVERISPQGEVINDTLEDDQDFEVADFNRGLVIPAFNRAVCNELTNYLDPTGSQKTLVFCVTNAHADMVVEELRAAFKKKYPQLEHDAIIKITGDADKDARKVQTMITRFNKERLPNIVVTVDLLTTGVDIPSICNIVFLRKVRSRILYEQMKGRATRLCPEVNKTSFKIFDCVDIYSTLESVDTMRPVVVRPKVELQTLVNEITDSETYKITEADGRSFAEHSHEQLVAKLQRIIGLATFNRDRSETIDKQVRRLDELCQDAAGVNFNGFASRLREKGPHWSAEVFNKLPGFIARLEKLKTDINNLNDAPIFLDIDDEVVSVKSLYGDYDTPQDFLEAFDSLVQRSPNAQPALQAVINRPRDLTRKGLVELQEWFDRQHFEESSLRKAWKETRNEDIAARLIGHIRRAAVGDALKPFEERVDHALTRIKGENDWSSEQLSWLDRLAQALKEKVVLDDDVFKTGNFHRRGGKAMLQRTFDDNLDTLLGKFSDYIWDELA
# EcoKI R/M enzyme (Escherichia coli), sequence (P08957 whole entry, chain 2 of 3, further chain): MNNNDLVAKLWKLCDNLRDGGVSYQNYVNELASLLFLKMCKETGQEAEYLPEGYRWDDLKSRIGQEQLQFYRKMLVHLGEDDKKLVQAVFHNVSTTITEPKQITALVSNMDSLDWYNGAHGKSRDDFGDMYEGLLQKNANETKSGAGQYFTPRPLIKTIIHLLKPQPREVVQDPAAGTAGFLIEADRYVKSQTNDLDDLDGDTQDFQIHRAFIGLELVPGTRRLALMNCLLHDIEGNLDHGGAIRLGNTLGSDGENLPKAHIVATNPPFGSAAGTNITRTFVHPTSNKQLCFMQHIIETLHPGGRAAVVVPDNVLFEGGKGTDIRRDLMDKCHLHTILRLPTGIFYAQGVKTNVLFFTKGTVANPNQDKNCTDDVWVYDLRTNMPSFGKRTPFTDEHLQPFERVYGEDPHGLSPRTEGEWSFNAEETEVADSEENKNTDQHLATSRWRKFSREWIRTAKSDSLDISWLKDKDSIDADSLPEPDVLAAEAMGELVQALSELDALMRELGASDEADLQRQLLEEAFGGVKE
# EcoKI R/M enzyme (Escherichia coli), sequence (P05719 2-464, chain 3 of 3, further chain): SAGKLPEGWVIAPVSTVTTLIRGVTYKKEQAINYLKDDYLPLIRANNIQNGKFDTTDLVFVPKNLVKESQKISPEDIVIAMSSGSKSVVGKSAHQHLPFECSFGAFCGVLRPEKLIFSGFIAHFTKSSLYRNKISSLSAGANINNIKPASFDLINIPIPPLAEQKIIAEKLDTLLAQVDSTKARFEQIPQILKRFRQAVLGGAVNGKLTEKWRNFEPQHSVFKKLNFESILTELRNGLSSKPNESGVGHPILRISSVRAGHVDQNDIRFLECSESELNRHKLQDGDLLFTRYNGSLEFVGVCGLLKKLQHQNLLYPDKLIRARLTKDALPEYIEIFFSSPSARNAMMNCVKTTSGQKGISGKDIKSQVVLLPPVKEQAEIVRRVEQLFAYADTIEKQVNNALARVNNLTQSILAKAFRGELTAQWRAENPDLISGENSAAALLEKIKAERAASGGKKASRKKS
# Ocr, sequence (P03775 whole entry): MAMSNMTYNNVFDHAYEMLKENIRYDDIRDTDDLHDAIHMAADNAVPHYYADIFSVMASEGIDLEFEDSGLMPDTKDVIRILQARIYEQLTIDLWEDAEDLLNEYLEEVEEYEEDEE
substance,measurement,value
Ocr (from UniProt P03775),Kd,0.05 nM
